Reference: patent US20140017249A1

Molecular target: IL-1 receptor (UniProt P14778)
Assay: cell-based or functional assay

Sequence of UniProt P14778 (P14778 18-569 limits assumed): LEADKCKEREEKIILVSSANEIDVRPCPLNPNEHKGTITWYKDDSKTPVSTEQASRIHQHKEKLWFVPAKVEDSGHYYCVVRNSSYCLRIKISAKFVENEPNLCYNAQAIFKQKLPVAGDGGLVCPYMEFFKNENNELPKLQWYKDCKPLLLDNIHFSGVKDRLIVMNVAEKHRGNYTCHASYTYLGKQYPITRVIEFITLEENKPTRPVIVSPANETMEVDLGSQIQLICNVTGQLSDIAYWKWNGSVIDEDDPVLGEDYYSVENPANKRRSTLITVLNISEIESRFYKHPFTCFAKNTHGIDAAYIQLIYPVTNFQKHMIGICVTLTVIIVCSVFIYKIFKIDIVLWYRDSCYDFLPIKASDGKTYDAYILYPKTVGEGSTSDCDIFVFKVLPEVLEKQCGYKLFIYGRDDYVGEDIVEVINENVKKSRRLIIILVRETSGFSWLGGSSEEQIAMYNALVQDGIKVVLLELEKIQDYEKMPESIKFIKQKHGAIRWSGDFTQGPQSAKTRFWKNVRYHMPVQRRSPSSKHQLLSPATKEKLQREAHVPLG

Kineret® (anakinra) (from UniProt P18510 26-177) (ligand)
IC50 (pM): inhibition of IL-8 released by IL-1β stimulation, human whole blood, 100 pM rhIL-1β: 53.4 pM
